# Laboratory results as given in patent US7056731 (MAYO FOUNDATION FOR MEDICAL EDUCATION AND RESEARCH, dated 2006).
# B1: wild type SULT2A1 polypeptide (reference human SULT2A1) (enzyme)
# chain: MSDDFLWFEGIAFPTMGFRSETLRKVRDEFVIRDEDVIILTYPKSGTNWLAEILCLMHSKGDAKWIQSVPIWERSPWVESEIGYTALSESESPRLFSSHLPIQLFPKSFFSSKAKVIYLMRNPRDVLVSGYFFWKNMKFIKKPKSWEEYFEWFCQGTVLYGSWFDHIHGWMPMREEKNFLLLSYEELKQDTGRTIEKICQFLGKTLEPEELNLILKNSSFQSMKENKMSNYSLLSVDYVVDKAQLLRKGVSGDWKNHFTVAQAEDFDKLFQEKMADLPRELFPWE
# notes: Recombinant protein expressed in COS-1 cells from pCR3.1 and used as an unpurified high speed supernatant cytosol preparation; The pair written here is its self-association into the homodimer; also called WT; WT enzyme
# B2: SULT2A1 Ala261Thr allozyme (enzyme)
# chain: MSDDFLWFEGIAFPTMGFRSETLRKVRDEFVIRDEDVIILTYPKSGTNWLAEILCLMHSKGDAKWIQSVPIWERSPWVESEIGYTALSESESPRLFSSHLPIQLFPKSFFSSKAKVIYLMRNPRDVLVSGYFFWKNMKFIKKPKSWEEYFEWFCQGTVLYGSWFDHIHGWMPMREEKNFLLLSYEELKQDTGRTIEKICQFLGKTLEPEELNLILKNSSFQSMKENKMSNYSLLSVDYVVDKAQLLRKGVSGDWKNHFTVTQAEDFDKLFQEKMADLPRELFPWE
# notes: Recombinant variant made by site directed mutagenesis and expressed in COS-1 cells from pCR3.1; It was used as an unpurified cytosol preparation; also called codon Thr261 variant allozyme
# Molecular target: the molecule itself
# Assay: gel filtration chromatography through Sephadex G-100 (self-association / homodimerization)
# Description: Gel Filtration Chromatography: Gel filtration chromatography of recombinant human SULT2A1 was performed at 4° C. with a 2×25 cm column of Sephadex G-100 superfine. The mobile phase was 5 mM K phosphate buffer, pH 7.5, and 3 ml fractions were collected at a flow rate of approximately 1.8 mL per h. The fractions were assayed for SULT2A1 activity. Standards for column calibration were eluted separately and included Dextran Blue 2000, bovine serum albumin (67 kDa), ovalbumin (45 kDa), chymotrypsinogen A ([…]) and ribonuclease A (13.7 kDa).
# The Ala261 Thr polymorphism is located within the dimerization motif at the C-terminus of the conserved 'Region IV' SULT signature sequence, and may alter the formation of the SULT2A1 homodimer. To test that hypothesis, recombinant WT and codon Thr261 variant allozyme preparations were subjected to gel filtration chromatography through Sephadex G-100.
row,Protein,binding result
1,B1,binds
2,B2,no binding
